# Data: patent publication US20190315842A1
# Experiments:
# histones [1] = assay: AtheNA Multi-Lyte ANA, Ab at 12.5 ug/ml
# histones [2] = assay: AtheNA Multi-Lyte ANA, Ab at 50 ug/ml
# histones [3] = assay: AtheNA Multi-Lyte ANA, Ab at 6.25 ug/ml
# [4] = biological target: sclerosis autoantigen (Scl-70) (UniProt P11387); assay: AtheNA Multi-Lyte ANA, Ab at 12.5 ug/ml
# [5] = biological target: sclerosis autoantigen (Scl-70) (UniProt P11387); assay: AtheNA Multi-Lyte ANA, Ab at 50 ug/ml
# [6] = biological target: sclerosis autoantigen (Scl-70) (UniProt P11387); assay: AtheNA Multi-Lyte ANA, Ab at 6.25 ug/ml
# histones [7] = assay: AtheNA Multi-Lyte ANA, Ab at 8.35 ug/ml
# histones [8] = assay: AtheNA Multi-Lyte ANA, Ab at 16.7 ug/ml
# histones [9] = assay: AtheNA Multi-Lyte ANA, Ab at 4.175 ug/ml
# histones [10] = assay: AtheNA Multi-Lyte ANA, Ab at 2.088 ug/ml
# histones [11] = assay: AtheNA Multi-Lyte ANA, Ab at 25 ug/ml
# histones [12] = assay: AtheNA Multi-Lyte ANA, Ab at 28.3 ug/ml
# histones [13] = assay: AtheNA Multi-Lyte ANA, Ab at 7.075 ug/ml
# histones [14] = assay: AtheNA Multi-Lyte ANA, Ab at 3.538 ug/ml
# sclerosis autoantigen (Scl-70), sequence (P11387 2-765 limits assumed): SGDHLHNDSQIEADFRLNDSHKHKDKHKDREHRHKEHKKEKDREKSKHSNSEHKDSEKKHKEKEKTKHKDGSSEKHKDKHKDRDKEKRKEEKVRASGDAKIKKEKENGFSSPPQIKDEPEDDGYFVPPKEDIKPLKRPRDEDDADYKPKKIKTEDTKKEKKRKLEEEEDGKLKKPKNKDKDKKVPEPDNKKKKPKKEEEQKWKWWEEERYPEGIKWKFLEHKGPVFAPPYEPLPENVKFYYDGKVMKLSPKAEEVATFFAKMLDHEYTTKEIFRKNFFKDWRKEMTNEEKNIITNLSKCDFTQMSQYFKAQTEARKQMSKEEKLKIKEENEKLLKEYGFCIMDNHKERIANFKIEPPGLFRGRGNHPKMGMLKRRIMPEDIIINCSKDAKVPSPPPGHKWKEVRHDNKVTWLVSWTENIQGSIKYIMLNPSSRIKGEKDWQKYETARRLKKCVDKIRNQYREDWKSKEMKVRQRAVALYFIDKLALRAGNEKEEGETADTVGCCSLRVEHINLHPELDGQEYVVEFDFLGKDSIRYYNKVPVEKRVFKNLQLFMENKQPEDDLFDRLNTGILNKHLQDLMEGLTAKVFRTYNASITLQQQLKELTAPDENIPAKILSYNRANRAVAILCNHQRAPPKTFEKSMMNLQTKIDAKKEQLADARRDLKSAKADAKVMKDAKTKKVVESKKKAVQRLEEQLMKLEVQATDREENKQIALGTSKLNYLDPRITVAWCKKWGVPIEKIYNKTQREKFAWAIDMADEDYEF
Binder,AtheNA signal (histones [1]),AtheNA signal (histones [2]),AtheNA signal (histones [3]),other results
"Ab7962/293i (antibody, V domains shown) VH: LVESGGGLVQPGGSLRLSCAASGFTFSSYEMNWVRQAPGKGLEWVSYISSSGSTIYYADSVKGRFTISRDNAKNSLYLQMNSLRAEDTAVYYCARVEQLAPSPYMDVWGKGTTVTVSS VL: MTQSLDSLTVSLGERATINCKSSQSLLYTSNNKNYLAWYQQKSGQPPKLLIYWASIRDSGVPDRFSGSGSATDFTLTINNLQAEDVAVYFCQQYYKTPLTFGGGTKVEVR",1,4,3,–
"Ab7955 (antibody, V domains shown) VH: LVESGGGVVRPGRSLRLSCVASGFTFNAYGMHWVRQGPGKGLEWLAVISYEGKTVYYADSVKDRFTISRDNSRNTVSLHLNNLRGEDTAVYYCAKGSASAAVLQHWGQGTLVSVTS VL: MTQSPGSLAVSLGSRATINCKSSRSLLYRSNNKNYLAWYQQKPGQSPRLLIYWASSRESGVPDRFSGGGSGTSFTLTISSLQAEDVAVYYCQQYFNPPWTFGQGTKVEIK",60,90,44,AtheNA signal [4]: 3; AtheNA signal [5]: 8; AtheNA signal [6]: 2
"Ab7960/293i (antibody, IgG1, V domains shown) VH: LVESGGGVVQPGKSLRLSCVASGFSFSTYGMHWVRQAPGKGLEWVAVMSFDGKTKYYADSVKGRFTISRDNPKNTLYLQMNSLRSEDTAVYYCAKGGAAAAVFDSWGPGILLTVSS VL: MTQSPNSLAVSLGGRATINCKASQSILYRSNNKNYLAWYQHKAGQPPKLLIYWASTRESGVPERFSGSGSRTDFTLTINGLQAEDVAVYYCQQYYNPPWTFGQGTKVEIK",26,31,18,–
"Ab7979 (antibody, IgG1, V domains shown) VH: LVESGGGVVQPGKSLRLSCVASGFTFSTYGMHWVRQAPGKGLEWVAVMSFDGKTKYYADSVKGRFTISRDNPKNTLYLQMNSLRSEDTAVYYCAKGGAAAAVFDSWGQGILLTVSS VL: MTQSPNSLAVSLGGRATINCKTSQSILYRSNNKNYLAWYQHKPGQPPKLLIYWASTRESRVPDRFSGSGSRTDFTLTISGLQAEDVAVYYCQQYYNPPWTFGQGTKVEIK",–,–,–,AtheNA signal (histones [7]): 114; AtheNA signal (histones [8]): 100; AtheNA signal (histones [9]): 114; AtheNA signal (histones [10]): 93
"Ab7961/293i (antibody, IgG1, V domains shown) VH: LVESGGGVVQPGKSLRLSCVASGFTFSSYGMHWVRQAPGKGLEWVAVMSFDGKTKYYADSVKGRFTISRDNPKNTLYLQMNSLRSEDTAVYYCAKGGAAAAVFDSWGQGILLTVSS VL: MTQSPNSLAVSLGGRATINCKTSQSILYRSNNKNYLAWYQHKSGQPPKLLIYWASTRESGVPDRFSGSGSRTDFTLTISGLQAEDVAVYYCQQYYNPPWTFGQGTKVEIK",69,77,62,AtheNA signal (histones [11]): 77
"Ab7957/293i (antibody, IgG1, V domains shown) VH: LVESGGGVVPPGKSLRLSCAASGFTFSLYGIHWVRQAPGKGLEWVAVISYDGNTKYYTDSVKGRFTISRDNAKNTIYLQMNSLRLDDTAVYYCAKGAANSATFDFWGRGTMVTVSS VL: MTQSPDSLTLSLGERATINCRSSRTVLYRSNNKNYLAWYQHKPGQPPKLLMSWASTRETGVPDRFSGSGSGTHFTLTITSLQPEDVAVYYCQQYYSPPWTFGQGTKVEIR",8,15,6,AtheNA signal (histones [11]): 9
"Ab7970 (antibody, IgG1, V domains shown) VH: LVESGGGVVQPGRSLRLSCAASGLTFSFYNFHWVRQTPGKGLEWVAGISYDATRTNYAGSVTGRFTISRDNSKKMLYLQMSSLGPQDTAVYHCARDRSDGQLHKVAFDSWGQGALVTVSS VL: MTQSPDSLTLSLGERATINCRSSRTVLYRSNNKNYLAWYQHKPGQPPKLLMSWASTRETGVPDRFSGSGSGTHFTLTITSLQPEDVAVYYCQQYYSPPWTFGQGTKVEIR",–,–,–,AtheNA signal (histones [12]): 131; AtheNA signal (histones [13]): 115; AtheNA signal (histones [14]): 86
